Measurements published in patent US20190033318A1.

Legend:
Test in all cases: thermal shift assay, 1 mM peptide
[1] = target: 1α PASB (HIF-1α PASB domain, 238-349) (UniProt Q16665)
[2] = target: 2α PASB (HIF-2α PASB domain, 240-350) (UniProt Q99814)
[3] = target: Trx-2α (thioredoxin-tagged HIF-2α 1-360, bHLH-PASA-PASB) (UniProt Q99814)
[4] = target: GST-1β (GST-tagged HIF-1β 1-474, isoform 2, Δ77-91) (UniProt P27540)

Chain of 2α PASB (HIF-2α PASB domain, 240-350) (Q99814 240-350): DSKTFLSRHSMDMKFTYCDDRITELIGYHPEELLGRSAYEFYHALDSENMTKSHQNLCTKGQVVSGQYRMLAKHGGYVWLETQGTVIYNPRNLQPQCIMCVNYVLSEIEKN
Chain of 1α PASB (HIF-1α PASB domain, 238-349) (Q16665 238-349): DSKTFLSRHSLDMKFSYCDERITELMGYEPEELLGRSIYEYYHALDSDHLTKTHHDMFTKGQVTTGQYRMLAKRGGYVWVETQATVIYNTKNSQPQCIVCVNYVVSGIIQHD
Chain of Trx-2α (thioredoxin-tagged HIF-2α 1-360, bHLH-PASA-PASB) (Q99814 1-360): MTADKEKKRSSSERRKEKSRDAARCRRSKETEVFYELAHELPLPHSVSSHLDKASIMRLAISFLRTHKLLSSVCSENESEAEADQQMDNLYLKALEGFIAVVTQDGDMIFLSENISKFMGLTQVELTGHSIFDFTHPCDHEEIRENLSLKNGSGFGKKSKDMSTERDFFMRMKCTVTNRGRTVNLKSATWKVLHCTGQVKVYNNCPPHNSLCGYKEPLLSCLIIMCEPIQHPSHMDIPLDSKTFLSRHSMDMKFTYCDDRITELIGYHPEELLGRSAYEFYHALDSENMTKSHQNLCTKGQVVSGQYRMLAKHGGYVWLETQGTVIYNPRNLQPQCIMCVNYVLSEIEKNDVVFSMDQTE

| ΔTm [1] | ΔTm [2] | ΔTm [3] | ΔTm [4] | Binder |
| --- | --- | --- | --- | --- |
| -0.5 ° C. | -2.5 ° C. | -2 ° C. |  | SGWEMIQRR (cyclic peptide (first amino acid joined to the last)) [cyclo-… (SEQ ID NO 5)] |
|  |  |  | -0.5 ° C. | CRVIIF (cyclic peptide (cyclo-, first amino acid joined to the last)) [cyclo-CRVIIF (SEQ ID NO 4)] |
